Earlier results, collected in publication PMC7692841.

Experiments:
[1] = target: ATRIP phosphopeptide (Homo sapiens) (UniProt Q8WXE1); assay: ITC
[2] = target: BACH1 phosphopeptide (Homo sapiens) (UniProt Q9BX63); assay: ITC
[3] = target: ABRAXAS phosphopeptide (Homo sapiens) (UniProt Q6UWZ7); assay: ITC
[4] = target: BRCA1-A complex (Homo sapiens) (UniProt Q6UWZ7)

Chain of BRCA1 BRCT (P38398 1646-1859): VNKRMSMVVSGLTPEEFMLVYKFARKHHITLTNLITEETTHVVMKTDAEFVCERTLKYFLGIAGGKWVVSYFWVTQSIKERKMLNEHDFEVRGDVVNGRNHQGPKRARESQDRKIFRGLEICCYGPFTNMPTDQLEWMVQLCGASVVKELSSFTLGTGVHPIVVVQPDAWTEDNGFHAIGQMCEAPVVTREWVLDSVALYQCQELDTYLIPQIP
Chain of ABRAXAS phosphopeptide (Homo sapiens) (Q6UWZ7 whole entry): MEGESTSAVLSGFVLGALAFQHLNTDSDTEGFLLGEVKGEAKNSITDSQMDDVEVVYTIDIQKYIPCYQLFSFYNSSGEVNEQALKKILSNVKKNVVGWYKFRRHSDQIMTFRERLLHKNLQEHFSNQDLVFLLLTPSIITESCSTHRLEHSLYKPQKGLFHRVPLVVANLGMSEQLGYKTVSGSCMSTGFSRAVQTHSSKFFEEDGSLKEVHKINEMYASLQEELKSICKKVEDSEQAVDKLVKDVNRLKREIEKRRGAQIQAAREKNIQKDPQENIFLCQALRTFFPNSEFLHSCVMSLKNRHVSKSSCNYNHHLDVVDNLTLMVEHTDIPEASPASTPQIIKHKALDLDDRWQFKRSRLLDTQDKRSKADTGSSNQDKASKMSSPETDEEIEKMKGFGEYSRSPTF
Chain of BACH1 phosphopeptide (Homo sapiens) (Q9BX63 whole entry): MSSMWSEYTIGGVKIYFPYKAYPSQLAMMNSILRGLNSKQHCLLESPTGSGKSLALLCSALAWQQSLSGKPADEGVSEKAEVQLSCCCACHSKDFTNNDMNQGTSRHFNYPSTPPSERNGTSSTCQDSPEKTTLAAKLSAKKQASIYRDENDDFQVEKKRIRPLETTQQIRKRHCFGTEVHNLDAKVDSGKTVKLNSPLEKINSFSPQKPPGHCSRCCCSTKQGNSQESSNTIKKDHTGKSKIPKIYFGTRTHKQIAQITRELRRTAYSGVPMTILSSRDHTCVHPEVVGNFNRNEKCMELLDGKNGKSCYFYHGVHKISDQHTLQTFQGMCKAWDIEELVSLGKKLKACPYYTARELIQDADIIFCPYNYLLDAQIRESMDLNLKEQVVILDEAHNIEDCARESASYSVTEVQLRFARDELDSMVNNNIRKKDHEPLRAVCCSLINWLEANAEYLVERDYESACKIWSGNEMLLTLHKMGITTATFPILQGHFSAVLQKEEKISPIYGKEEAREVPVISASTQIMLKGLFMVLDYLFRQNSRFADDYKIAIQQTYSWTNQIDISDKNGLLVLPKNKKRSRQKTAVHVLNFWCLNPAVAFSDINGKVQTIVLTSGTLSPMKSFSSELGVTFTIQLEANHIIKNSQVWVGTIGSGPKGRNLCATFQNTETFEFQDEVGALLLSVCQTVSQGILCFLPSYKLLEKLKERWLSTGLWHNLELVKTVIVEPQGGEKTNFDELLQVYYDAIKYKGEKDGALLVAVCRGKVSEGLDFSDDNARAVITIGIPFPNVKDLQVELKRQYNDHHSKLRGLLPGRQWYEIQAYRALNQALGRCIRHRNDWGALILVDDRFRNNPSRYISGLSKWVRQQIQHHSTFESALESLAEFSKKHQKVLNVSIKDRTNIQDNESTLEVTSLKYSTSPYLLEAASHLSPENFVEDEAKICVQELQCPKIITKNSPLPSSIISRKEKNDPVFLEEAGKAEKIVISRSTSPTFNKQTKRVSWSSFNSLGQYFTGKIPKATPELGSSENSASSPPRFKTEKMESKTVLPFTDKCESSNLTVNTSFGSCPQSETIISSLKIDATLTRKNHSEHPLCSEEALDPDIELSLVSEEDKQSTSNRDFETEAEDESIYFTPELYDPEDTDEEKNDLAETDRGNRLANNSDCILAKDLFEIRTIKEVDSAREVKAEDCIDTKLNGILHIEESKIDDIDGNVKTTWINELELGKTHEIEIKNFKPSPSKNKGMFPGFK
Chain of ATRIP phosphopeptide (Homo sapiens) (Q8WXE1 whole entry): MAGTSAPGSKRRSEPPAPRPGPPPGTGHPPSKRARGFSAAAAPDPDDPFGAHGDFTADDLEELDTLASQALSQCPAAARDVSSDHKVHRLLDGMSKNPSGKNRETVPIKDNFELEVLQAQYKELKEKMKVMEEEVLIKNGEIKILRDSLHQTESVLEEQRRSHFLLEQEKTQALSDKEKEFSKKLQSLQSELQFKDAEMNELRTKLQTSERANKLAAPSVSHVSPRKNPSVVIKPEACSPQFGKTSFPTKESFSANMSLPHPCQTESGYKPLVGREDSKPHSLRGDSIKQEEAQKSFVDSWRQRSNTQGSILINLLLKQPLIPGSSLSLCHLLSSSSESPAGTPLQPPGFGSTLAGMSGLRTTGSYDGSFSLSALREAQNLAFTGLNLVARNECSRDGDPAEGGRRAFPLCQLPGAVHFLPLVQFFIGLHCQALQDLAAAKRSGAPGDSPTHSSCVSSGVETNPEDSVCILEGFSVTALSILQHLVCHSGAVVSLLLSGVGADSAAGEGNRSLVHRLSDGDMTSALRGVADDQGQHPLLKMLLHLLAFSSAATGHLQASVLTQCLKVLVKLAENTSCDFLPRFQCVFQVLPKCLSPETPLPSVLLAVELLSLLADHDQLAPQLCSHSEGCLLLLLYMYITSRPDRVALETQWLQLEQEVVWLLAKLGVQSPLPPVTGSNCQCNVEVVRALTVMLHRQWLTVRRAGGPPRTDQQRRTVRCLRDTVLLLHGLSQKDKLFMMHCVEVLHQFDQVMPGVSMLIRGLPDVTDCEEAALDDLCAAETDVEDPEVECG

Kd [1]: 28200 nM | Kd [2]: 700 nM | Kd [3]: 1200 nM | Kd [4]: 80 nM
Substance: BRCA1 BRCT (from UniProt P38398)
